Experimental data from patent US20150166671A1 (CHILDREN S MEDICAL CENTER, published 2015).

B1: TIKI2N-FLAG-6xHIS (protein)
chain: RPQPPDGGQCRPPGSQRDLNSFLWTIRRDPPAYLFGTIHVPYTRVWDFIPDNSKAAFQASTRVYFELDLTDPYTISALASCQLLPHGENLQDVLPHELYWRLKRHLDYVKLMMPSWMTPAQRGKGLYADYLFNAIAGNWERKRPVWVMLMVNSLTERDVRFRGVPVLDLYLAQQAEKMKKTTGAVEQVEEQCHPLNNGLNFSQVLFALNQTLLQQESVRAGSLQASYTTEDLIKHYNCGDLSAVIFNHDTSQLPNFINTTLPPHEQVTAQEIDSYFRQELIYKRNERMGKRVMALLRENEDKICFFAFGAGHFLGNNTVIDILRQAGLEVDHTPAGQAIHSPAPQSPAPSPEGTSTSPAPVTPAAAVPEAPSVTPTAPPEDEDPALSPHLLLPDSLSQLEEFGRQRKWHKRQSTHQRPRQFNDLWVRIEDSTTASPPPLPLQPTHSSGTAKPPFQLSDQLQQQDPPG
B2: TIKI2NΔ-FLAG-6xHIS (protein)
chain: B1 chain
B3: Xwnt8-Myc (ligand)
chain: AWSVNNFLMTGPKAYLTYSASVAVGAQNGIEECKYQFAWERWNCPESTLQLATHNGLRSATRETSFVHAISSAGVMYTLTRNCSMGDFDNCGCDDSRNGRIGGRGWVWGGCSDNAEFGERISKLFVDGLETGQDARALMNLHNNEAGRLAVKETMKRTCKCHGISGSCSIQTCWLQLAEFRDIGNHLKIKHDQALKLEMDKRKMRSGNSADNRGAIADAFSSVAGSELIFLEDSPDYCLKNISLGLQGTEGRECLQSGKNLSQWERRSCKRLCTDCGLRVEEKKTEIISSCNCKFHWCCTVKCEQCKQVVIKHFCARRERDSNMLNTKRKNRGHRR
notes: also called Xenopus wnt8; not shown: Myc tag
B4: Xwnt11 (ligand, Xenopus, UniProt P49893 23-353, looked up)
chain: IQWLGLTVNGSRVAWNESEHCRLLDGLVPDQSQLCKRNLELMQSVVNAAKQTKLTCQMTLSDMRWNCSSVENAPSFTPDLSKGTRESAFVYALASATLSHTIARACASGELPTCSCGATPAEVPGTGFRWGGCGDNLHYGLNMGSAFVDAPMKSSKSAGTQATKIMNLHNNAVGRQVLMDSLETKCKCHGVSGSCSVKTCWKGLQDLPHIANELKSKYLGATKVIHRQTGTRRQLVPRELDIRPVRESELVYLVSSPDYCTKNPKLGSYGTQDRLCNKTSVGSDSCNLMCCGRGYNAYTETIVERCQCKYHWCCYVMCKKCERTVERYVCK

How the values were obtained:
[1] = molecular target: T1, recombinant human WNT3A, P56704
T1 chain: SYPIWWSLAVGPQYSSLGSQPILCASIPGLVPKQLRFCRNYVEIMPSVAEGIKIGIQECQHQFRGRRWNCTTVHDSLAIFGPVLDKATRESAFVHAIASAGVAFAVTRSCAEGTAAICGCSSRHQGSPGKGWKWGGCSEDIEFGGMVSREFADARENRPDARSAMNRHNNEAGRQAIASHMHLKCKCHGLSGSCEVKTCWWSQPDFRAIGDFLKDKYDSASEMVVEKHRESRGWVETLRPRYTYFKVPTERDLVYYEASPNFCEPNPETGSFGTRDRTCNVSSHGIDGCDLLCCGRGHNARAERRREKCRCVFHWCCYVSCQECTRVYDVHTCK

KRM2N-FLAG-6xHIS = molecular target: T2, KRM2N-FLAG-6xHIS (human, UniProt Q8NCW0 26-364); experiment: co-immunoprecipitation from CM with an anti-FLAG antibody, Western blotting
T2 construct: extracellular domain; Negative control; also called human Kremen2; not shown: carboxyl FLAG tag and 6xHIS tag
T2 sequence (looked up): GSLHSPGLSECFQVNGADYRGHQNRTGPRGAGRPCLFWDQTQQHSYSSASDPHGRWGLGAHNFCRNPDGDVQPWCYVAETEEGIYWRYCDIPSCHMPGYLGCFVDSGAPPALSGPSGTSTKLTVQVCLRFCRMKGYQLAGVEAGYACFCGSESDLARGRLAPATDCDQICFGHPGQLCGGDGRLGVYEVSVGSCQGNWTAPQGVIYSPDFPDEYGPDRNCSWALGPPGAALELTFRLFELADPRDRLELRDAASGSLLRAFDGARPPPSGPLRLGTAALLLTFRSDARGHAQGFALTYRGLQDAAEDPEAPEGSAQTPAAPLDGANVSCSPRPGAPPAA
Description: (Y-BB) TIKI2, but not KRM2, interacts with Wnt3a, Xwnt8-Myc, Wnt5a, and Xwnt11. Wnt proteins were each co-expressed with KRM2N or TIKI2N (FLAG tagged) and CM were subjected to immunoprecipitation with an anti-FLAG antibody and Western blotting with indicated antibodies.
The rabbit polyclonal anti-LRP6 antibody has been described (Tamai et al., 2004). Other antibodies were used according to manufacturer's instructions. From Cell Signaling: the rabbit monoclonal anti-Wnt3a (#2721, 1:1000), anti-HA (#3724, 1:1000), anti-Wnt5a (#2530, 1:1000) and anti-FLAG (#8146, 1:2000), from Santa Cruz: anti-Dv12 (sc-13974, 1:1000), anti-HA (sc-7392, 1:1000), and anti-Myc (sc-40, 1:500), from BD Transduction Laboratories: anti-beta-catenin (610154, 1:2000), From Hybridoma Bank: anti-tubulin (E7, 1:5000). Anti-FLAG M2 (A2220) and anti-HA (A2095) Affinity gels are from Sigma Immunoblotting was performed as previously described (MacDonald et al., 2008). For indirect immunofluorescence experiments, HeLa cells were plated on glass coverslips in 12-well plates and transfected with HA*Tiki1 expression construct. To visualize Tiki1 proteins on the cell surface, live cells were incubated with the anti-HA antibody in the culture medium for 30 min. The coverslip was washed with PBS and fixed with 4% paraformaldehyde in PBS for 10 min at room temperature. […]

Binder	in vitro cleavage of purified HA-Wnt3a by purified protein (Western blotting) (HA-Wnt3a)	in vitro cleavage, mass spectrometry [1]	binding result (KRM2N-FLAG-6xHIS)
B1	upon in vitro incubation with purified HA-Wnt3a, triggered Wnt3a cleavage and the disappearance of the HA epitope	MS analyses of recombinant human WNT3A cleaved by TIKI2N in vitro indicated cleavage at identical (major and minor) amino terminal sites as observed in cells	–
B2	failed to do so in the in vitro assay	–	–
B3	–	–	no binding
B4	–	–	no binding
